Consider 1 substance from article PMC3960220, “1,2-β-Oligoglucan Phosphorylase from Listeria innocua” (PLoS ONE, 2014).

The subject of this data set is O=P(O)(O)O[C@H]1O[C@H](CO)[C@@H](O)[C@H](O)[C@H]1O. Kind of data set: phosphate release, Lowry and Lopez molybdate method, A700. In kind it is biochemical, Listeria innocua. The following applies: synthetic reaction (donor, up to 10 mM), co-substrate 10 mM Sop2, 100 mM MOPS-NaOH pH 7.5, 30°C.

From the text: phosphate release, Lowry and Lopez molybdate method, A700 on Lin1839r (recombinant Lin1839 protein; 1,2-β-oligoglucan phosphorylase)

What is called Km is the concentration of substrate that gives half-maximal velocity. Usually kcat stands for the number of substrate molecules converted per active site and unit of time at saturation. Broadly, the kcat/Km is the turnover number divided by the Michaelis constant. Consider “Lin1839r (recombinant Lin1839 protein; 1,2-β-oligoglucan phosphorylase) (Listeria innocua Clip11262; T2A)”, for which the Km is 1200 ± 200 µM, the kcat came to 43 ± 2 s⁻¹ and the kcat/Km was found to be 34000 ± 4000 M⁻¹ s⁻¹.
